Source: patent US20240301385, “DNA MODIFYING ENZYMES AND ACTIVE FRAGMENTS AND VARIANTS THEREOF AND METHODS OF USE” (LIFEEDIT THERAPEUTICS, INC., published 2024)

T1: APG09980.1-L16-nAPG07433.1 (truncated deaminase) (synthetic)
T1 chain: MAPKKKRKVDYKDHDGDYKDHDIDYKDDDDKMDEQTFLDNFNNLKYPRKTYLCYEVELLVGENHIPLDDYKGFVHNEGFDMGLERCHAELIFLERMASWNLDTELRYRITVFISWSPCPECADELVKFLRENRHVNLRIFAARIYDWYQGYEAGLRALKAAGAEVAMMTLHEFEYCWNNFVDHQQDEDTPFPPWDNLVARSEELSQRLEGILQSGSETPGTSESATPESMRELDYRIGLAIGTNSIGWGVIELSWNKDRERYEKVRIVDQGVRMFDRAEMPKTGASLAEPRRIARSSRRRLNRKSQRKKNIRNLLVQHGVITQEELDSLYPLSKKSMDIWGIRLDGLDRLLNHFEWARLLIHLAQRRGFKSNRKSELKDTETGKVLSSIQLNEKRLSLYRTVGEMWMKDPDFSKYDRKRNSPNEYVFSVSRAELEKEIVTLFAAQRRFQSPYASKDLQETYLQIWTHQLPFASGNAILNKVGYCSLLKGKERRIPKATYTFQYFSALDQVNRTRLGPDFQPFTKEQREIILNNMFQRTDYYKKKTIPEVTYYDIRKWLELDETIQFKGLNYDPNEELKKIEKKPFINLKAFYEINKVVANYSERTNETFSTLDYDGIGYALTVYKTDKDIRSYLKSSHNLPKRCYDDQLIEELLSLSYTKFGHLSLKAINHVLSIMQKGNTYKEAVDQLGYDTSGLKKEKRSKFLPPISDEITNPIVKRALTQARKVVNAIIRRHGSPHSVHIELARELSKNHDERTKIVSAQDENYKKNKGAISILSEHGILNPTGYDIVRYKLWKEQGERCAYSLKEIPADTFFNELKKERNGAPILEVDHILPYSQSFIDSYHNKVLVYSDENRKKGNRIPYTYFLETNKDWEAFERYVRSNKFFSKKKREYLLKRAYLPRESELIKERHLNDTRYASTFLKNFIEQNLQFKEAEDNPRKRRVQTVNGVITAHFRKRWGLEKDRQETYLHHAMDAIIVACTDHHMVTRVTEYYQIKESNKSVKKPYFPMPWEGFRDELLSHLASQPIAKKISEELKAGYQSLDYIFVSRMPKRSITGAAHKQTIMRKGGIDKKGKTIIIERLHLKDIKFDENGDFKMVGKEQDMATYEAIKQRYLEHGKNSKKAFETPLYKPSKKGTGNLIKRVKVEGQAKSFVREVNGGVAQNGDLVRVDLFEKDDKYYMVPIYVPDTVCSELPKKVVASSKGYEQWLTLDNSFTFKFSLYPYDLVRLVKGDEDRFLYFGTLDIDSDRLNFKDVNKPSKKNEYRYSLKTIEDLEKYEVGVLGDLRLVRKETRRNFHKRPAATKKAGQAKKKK


Columns and labels:
[1] = target: T1, APG09980.1-L16-nAPG07433.1 (truncated …); assay: cell_activity; HEK293FT; PAM SEQ 152; conditions: tags: SV40 NLS, 3xFLAG N-term; nucleoplasmin NLS C-term
Method: (§1) 500 ng of plasmid comprising an expression cassette comprising a coding sequence for each fusion protein shown in Table 3 and 500 ng of plasmid comprising an expression cassette encoding an sgRNA shown in Table 4 were co-transfected into HEK293FT cells at 75-90% confluency in 24-well plates using Lipofectamine 2000 reagent (Life Technologies). Cells were then incubated at […] for 72 h. Following incubation, genomic DNA was then extracted using NucleoSpin 96 Tissue (Macherey-Nagel) following the manufacturer's protocol. The genomic region flanking the targeted genomic site was PCR amplified using the primers in Table 4 and products were purified using ZR-96 DNA Clean and Concentrator (Zymo Research) following the manufacturer's protocol. The purified PCR products were then sent for Next Generation Sequencing on Illumina MiSeq (2×250). Results were analyzed for INDEL formation or introduction of % specific cytosine mutations.
(§2) The position of each nucleotide in the target sequence was determined. “C17” indicates, for example, a cytosine at position 17 of the target sequence. The position of each nucleotide in the target sequence was determined by numbering the first nucleotide in the target sequence closest to the PAM as position 1, and the position number increases in the 3′ direction away from the PAM sequence.

[2] = target: APG05840-L16-nAPG07433.1 (synthetic); assay: cell_activity; HEK293FT; PAM SEQ 152; conditions: tags: SV40 NLS, 3xFLAG N-term; nucleoplasmin NLS C-term
Method: as §1, §2

Binder	activity [1]	activity [2]
SGN001101 sgRNA ; SGN001101 target (ssRNA ; dsDNA) RNA: AUAUUUUCUUUAAUGGUGCCAGGCAGUCAUAGUUCCAUUAAAGCCAAAAGUGGCUUUGAUGUUUCUAUGAUAAGGGUUUCGACCCGUGGCGUCGGGGAUCGCCUGCCCAUUGAAAUGGGCUUCUCCCCAU DNA 1: ATATTTTCTTTAATGGTGCCAGGCA DNA 2: TGCCTGGCACCATTAAAGAAAATAT	30.5 % mutated reads	24.3 % mutated reads
SGN000169 sgRNA ; SGN000169 target (ssRNA ; dsDNA) RNA: CACAUCUCGAGCAAGACGUUGUCAUAGUUCCAUUAAAGCCAAAAGUGGCUUUGAUGUUUCUAUGAUAAGGGUUUCGACCCGUGGCGUCGGGGAUCGCCUGCCCAUUGAAAUGGGCUUCUCCCCAUUUAUU DNA 1: CACATCTCGAGCAAGACGTT DNA 2: AACGTCTTGCTCGAGATGTG	24.1 % mutated reads	
SGN000930 sgRNA ; SGN000930 target (ssRNA ; dsDNA) RNA: GAACAACUCAAAUGGAAAUGAAUAUGUCAUAGUUCCAUGAAAGCCAAAAGUGGCUUUGAUGUUUCUAUGAUAAGGGUUUCGGCCCGUGGCGUCGGGGAUCGCCUGCCCAUUCCGAUGGGCUUCUCCCCAUUUAUU DNA 1: GAACAACTCAAATGGAAATGAATAT DNA 2: ATATTCATTTCCATTTGAGTTGTTC		22.4 % mutated reads
SGN000929 sgRNA ; SGN000929 target (ssRNA ; dsDNA) RNA: AUCUGGAGGGAACUUACAGCAUAUGGUCAUAGUUCCAUGAAAGCCAAAAGUGGCUUUGAUGUUUCUAUGAUAAGGGUUUCGGCCCGUGGCGUCGGGGAUCGCCUGCCCAUUCCGAUGGGCUUCUCCCCAUUUAUU DNA 1: ATCTGGAGGGAACTTACAGCATATG DNA 2: CATATGCTGTAAGTTCCCTCCAGAT	25.9 % mutated reads	27.7 % mutated reads
